Experiments:
[1] = system: CD40-stimulated CLL cells; assay: Cytotoxicity against CLL cells cultured on 3T3 or CD40L+ 3T40L fibroblasts; format: cell-based, human; conditions: with Vγ9Vδ2-T cells 1:1, V19S76K-5C8 100 nM; 3T3 versus 3T40L; FIG. 14
Description: Primary CLL cells were obtained, cryopreserved and thawed as described in Example 3. 3T3 fibroblasts, either WT or transfected with human CD40L (3T40L), were grown in complete IMDM. Vγ9Vδ2-T cells were grown as described in Example 7.
Primary CLL cells were cultured for 72 hours on irradiated 3T3 or 3T40L fibroblasts to induce CD40 stimulation.
Cells were then harvested and cultured overnight either with venetoclax (10 nM) as described in Example 10, or with Vγ9Vδ2-T cells and V19S76K-5C8 as described in Example 12. Viability measurement and flow cytometry were performed as described in Example 10.

CD40 [2] = biological target: T1, CD40 (Homo sapiens, UniProt P25942); assay: CD40 antagonistic activity in primary CLL cells: pre-incubation, then rmCD40L for 48 h; format: cell-based; conditions: pre-incubation, then rmCD40L for 48 hours; FIG. 8A-C
T1 construct: Primary chronic lymphocytic leukemia (CLL) cells express CD40 on the cell surface; endogenous in cells; host or cells: primary CLL PBMCs from untreated CLL patients
Description: PBMCs (≥90% CD5^+CD19^+) from untreated CLL patients were obtained and cryopreserved as described in […]. Thawed cells were kept in complete IMDM.
To test whether the VHH antagonizes CD40 stimulation, primary CLL PBMCs were pre-incubated with VHH or medium control for 30 minutes at 37° C. and subsequently cultured for 48 hours in the presence of rmCD40L (100 ng/mL).
After 48 hours, cells were analyzed by flow cytometry as described in Example 4.
To assess whether binding of the VHH has antagonistic effects, primary CLL PBMCs were pre-incubated with V19S76K-5C8 or medium control and then cultured with rmCD40L for 48 hours and analyzed by flow cytometry as described in Example 5.

[3] = biological target: T2, human CD40 (CD40-transfected HEK293T cells) (Homo sapiens, UniProt P25942); assay: Bispecific VHH binding to CD40-transfected HEK293T cells, anti-llama IgG flow cytometry; conditions: 1 μM; FIG. 5
T2 construct: expressed in transfected cells; host or cells: HEK293T
Description: The embryonic kidney cell line HEK293T, either wildtype (WT) or transfected with human CD40, was grown in complete DMEM.
To assess VHH binding, cells were incubated with V19S76K-5C8 (1 μM) or medium control for 30 minutes at 37° C. Bound VHH was detected by incubation with FITC-conjugated goat-anti-llama IgG-heavy and light chain antibodies (A160-100F, Bethyl Laboratories Inc., Montgomery, Tex., USA) for 20 minutes at 4° C.
After 48 hours, cells were analyzed by flow cytometry as described in Example 2.

[4] = system: Vγ9Vδ2-T cells present in the bone marrow of MM patients; assay: Activation of Vγ9Vδ2-T cells in bone marrow mononuclear cells from MM patients; format: cell-based, human; conditions: 10 nM, overnight
Description: FIG. 17: V19S76K-5C8 is active against primary multiple myeloma. (A) Example of CD40 expression on primary MM cells, as detected using anti-CD40 PE antibody, clone MAB89, Beckman Couter, IM1936U. Representative histograms of 4 donors (B) Bone marrow of MM patients was cultured overnight in the presence or absence of healthy donor-derived Vγ9Vδ2-T cells in a 1:1 (Vγ9Vδ2-T:plasma cell) ratio in the absence or presence of V19S76K-5C8 (10 μM or 10 nM). Live plasma cells were quantified by flow cytometry using counting beads (n=5). (C, D) Mononuclear cells from the bone marrow of MM patients were cultured overnight with V19S76K-5C8 (VHH; 10 nM), aminobisphosphonate (ABP; 10 μM zoledronic acid (positive control)) or medium control in the presence of brefeldin, monensin and anti-CD107a to measure (C) cytokine production and (D) degranulation by flow cytometry (n=6). Data are presented as mean and SEM. *P<0.05, **P<0.01. (B-D: repeated-measures one-way ANOVA followed by Dunnett's post hoc test compared to condition without antibody).
Similarly, Vγ9Vδ2-T cells present in bone marrow mononuclear cells from MM patients degranulated after culture with the bispecific VHH V19S76K-5C8 (FIG. 17D).

CD40 [5] = biological target: T1, CD40; assay: CD40 agonistic activity in primary CLL cells, 48 h, flow cytometry; format: cell-based; conditions: FIG. 7A-C
Description: PBMCs (≥90% CD5^+CD19^+) from untreated CLL patients were obtained and cryopreserved as described in Example 3. Thawed cells were kept in complete IMDM.
To assess whether binding of the VHH to CD40 has agonistic effects, primary CLL PBMCs were cultured for 48 hours in the presence of VHH, medium control or recombinant multimeric CD40 ligand (rmCD40L; 100 ng/mL, Bioconnect).
After 48 hours, cells were harvested, washed and incubated with AF700-conjugated anti-CD19 (557921), FITC-conjugated anti-CD80 (6109965), APC-conjugated anti-CD86 (555660, all BD Biosciences), PE-conjugated anti-CD5 (12-0059-42, Thermo Fisher Scientific) and PECy7-conjugated anti-CD95 (305621, Biolegend, San Diego, Calif., USA) antibodies for 20 minutes at 4° C. Alternatively, after 48 hours, cells were harvested and viability was measured using Mitotracker Orange (25-minute incubation at 37° C.) and To-pro-3 (10-minute incubation at room temperature; both Thermo Fisher Scientific). Samples were measured on a FACSCanto cytometer (BD Biosciences) and analyzed with Flowjo MacV10.
To assess whether binding of the VHH has agonistic effects, primary CLL PBMCs were cultured with the indicated concentrations of V19S76K-5C8, medium control or rmCD40L for 48 hours and analyzed by flow cytometry as described in Example 4.

primary CLL cells = assay: Venetoclax sensitivity and Bcl-xL expression of rmCD40L-stimulated primary CLL cells; format: cell-based, human; conditions: V19S76K-5C8 1000 nM before rmCD40L 48 h
CD19+ CLL cells = assay: Cytotoxicity of CLL cells by autologous CD3+ cells, live cell count with counting beads; format: cell-based, human; conditions: 10 nM, overnight, CD3+:CD19+ 10:1, autologous; FIG. 16
Description: PBMCs from CLL patients were obtained, cryopreserved and thawed as described in Example 3.
CD3^+ cells were isolated from CLL PBMCs using magnetic beads (purity ≥93%; 130-050-101, Miltenyi Biotec) to simultaneously enrich for Vγ9Vδ2-T cells. CD19^+ CLL cells were isolated from the same sample using magnetic beads (purity ≥93%; 130-050-301, Miltenyi Biotec). CD3^+ cells were cultured overnight with CD19^+ CLL cells in a 10:1 ratio with V19S76K-5C8 (10 nM) or medium control.
Samples were incubated with Fixable Viability Dye eF780 (65-0865-14), PerCPeF710-conjugated anti-CD3), PE-conjugated anti-CD5 (12-0059-42, all Thermo Fisher Scientific) and FITC-conjugated anti-CD20 (A07772, Beckman Coulter) antibodies. Live CLL cells were then quantified using counting beads (01-1234-42, Thermo Fisher Scientific) on a FACSCanto cytometer (BD Biosciences).

T1 sequence (P25942 21-277): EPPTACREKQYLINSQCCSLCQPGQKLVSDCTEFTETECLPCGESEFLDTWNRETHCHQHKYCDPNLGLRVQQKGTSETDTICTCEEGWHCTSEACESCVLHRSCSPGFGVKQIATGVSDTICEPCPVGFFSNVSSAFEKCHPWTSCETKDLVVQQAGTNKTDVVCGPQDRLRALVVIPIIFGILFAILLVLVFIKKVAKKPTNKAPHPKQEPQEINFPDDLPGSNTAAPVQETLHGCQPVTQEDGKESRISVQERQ
T2 sequence (P25942 21-277): as above

B1: V19S76K-5C8: tag-less bispecific anti-CD40-anti-Vγ9Vδ2-TCR VHH, SEQ ID NO:23 (protein)
VHH: QVQLQESGGGLVQAGGSLRLSCAASGRTFGRSAMGWFRQAPGKEREFVAAIGTRGGSTKYADSVKGRFTISTDNAKNTVYLQMDSLKPEDTAVYRCAVRGPGYPSAAIFQDEYHYWGQGTQVTVSSGGGGSEVQLVESGGGLVQAGGSLRLSCAASGRPFSNYAMGWFRQAPGKEREFVAAISWSGGSTSYADSVKGRFTISRDNAKNTVYLQMNSPKPEDTAIYYCAAQFSGADYGFGRLGIRGYEYDYWGQGTQVTVSS
modifications: antibody sequence
With B1 the “cytotoxicity in unstimulated versus CD40-stimulated CLL cells” value [1] was “induced cytotoxicity in unstimulated and CD40-stimulated CLL cells to a similar extent”, the “prevention of the effects of CD40 stimulation (CD80, CD86 and CD95 expression)” value (CD40 [2]) was “prevented the effects of CD40 stimulation in a dose-dependent manner” and the “binding to CD40-expressing HEK293T cells” value [3] was “binds to the CD40-expressing HEK293T cells”. The “production of IFN-γ and TNF-α by bone marrow Vγ9Vδ2-T cells” value ([4]; FIG. 17C) was “triggered to produce the pro-inflammatory cytokines IFN-γ and TNF-α”, the “degranulation of bone marrow Vγ9Vδ2-T cells” value ([4]; FIG. 17D) was “degranulated” and the “CD40 stimulation (expression of CD80, CD86 and CD95)” value (CD40 [5]) was “none of the V19S76K-5C8 concentrations tested increased the expression of CD80, CD86 or CD95”. The “sensitivity to venetoclax of rmCD40L-stimulated primary CLL cells” value (primary CLL cells; then venetoclax 24 h, FIG. 9A) was “as sensitive to venetoclax as unstimulated CLL cells”, the Bcl-xL expression (primary CLL cells; FIG. 9B) was “returned to unstimulated levels” and the “live CLL cells versus medium control” value (CD19+ CLL cells) was “Fewer CLL cells were alive”.

— patent publication US20220135694A1, “NOVEL CD40-BINDING ANTIBODIES” (LAVA THERAPEUTICS B.V., priority 2019, published 2022)
